Data reported in patent publication US20180057888A1, “KUB5/HERA AS A DETERMINANT OF SENSITIVITY TO DNA DAMAGE” (priority 2015, published 2018).

Target: RNA Polymerase II (RNAPII), phospho-Ser2 C-terminal domain (pS2-CTD) (UniProt P24928)
Test: cell-based or functional assay

myc-tagged wild-type Kub5-Hera (K-H), sequence (Q9NQG5 whole entry): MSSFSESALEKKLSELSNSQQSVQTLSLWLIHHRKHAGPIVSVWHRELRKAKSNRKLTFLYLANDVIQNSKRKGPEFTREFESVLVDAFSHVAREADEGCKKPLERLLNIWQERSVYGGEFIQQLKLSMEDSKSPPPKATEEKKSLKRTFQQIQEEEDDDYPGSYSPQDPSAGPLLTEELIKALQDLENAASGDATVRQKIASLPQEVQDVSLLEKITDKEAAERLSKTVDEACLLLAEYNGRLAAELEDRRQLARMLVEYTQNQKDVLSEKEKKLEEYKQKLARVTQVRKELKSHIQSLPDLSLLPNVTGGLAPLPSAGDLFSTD

CDK1 promoter activity (luciferase reporter, 231 cells): 3 fold
Substance: myc-tagged wild-type Kub5-Hera (K-H) (from UniProt Q9NQG5 1-326)
